B2: CD95 immunoadhesin (Fc fusion, UniProt P25445 26-173, looked up)
chain: QVTDINSKGLELRKTVTTVETQNLEGLHHDGQFCHKPCPPGERKARDCTVNGDEPDCVPCQEGKEYTDKAHFSSKCRRCRLCDEGHGLEVEINCTRTQNTKCRCKPNFFCNSTVCEHCDPCTKCEHGIIKECTLTSNTKCKEEGSRSN
notes: extracellular domain; also called CD95-IgG; Fas-IgG; not shown: hinge and Fc portion of human IgG; made as described for TNFR1 in Ashkenazi et al. 1991 (IgG1 from)
B3: full-length PRO175 polypeptide on cells (ligand)
chain: MCLSHLENMPLSHSRTQGAQRSSWKLWLFCSIVMLLFLCSFSWLIFIFLQLETAKEPCMAKFGPLPSKWQMASSEPPCVNKVSDWKLEILQNGLYLIYGQVAPNANYNDVAPFEVRLYKNKDMIQTLTNKSKIQNVGGTYELHVGDTIDLIFNSEHQVLKNNTYWGIILLANPQFIS
notes: Human 293 cells were transiently transfected with full-length PRO175, co-transfected with CD4 for gating; also called PRO175 on transfected 293 cells; PRO175 on HUVEC

What was measured:
[1] = target: B2; assay: co-precipitation with protein A-sepharose, SDS-PAGE, autoradiography
Protocol: (§1) The soluble PRO175 ECD molecule was abeled with ¹²⁵I, for testing its ability to interact with the PRO364 immunoadhesin. For comparison, immunoadhesin constructs were also made of the following TNF receptor family members: CD95, DR4, DR5, TNFR1, TNFR2, and Apo-3. CD95, DR4, DR5, TNFR1, TNFR2, and Apo-3 immunoadhesins were prepared by fusing each receptor's ECD to the hinge and Fc portion of human IgG, as described previously for TNFR1 [Ashkenazi et al., Proc. Natl. Acad. Sci., 88:10535-10539 (1.991)]. The respective TNF receptor family members are described (and relevant references cited) in the Background of the Invention section.
(§2) For the co-precipitation assay, each immunoadhesin (5 microgram) was incubated with ¹²⁵I-labeled soluble PRO175 polypeptide (I microgram) for 1 hour at 24° C., followed by protein A-sepharose for 30 minutes on ice. The reaction mixtures were spun down and washed several times in PBS, boiled in SDS-PAGE buffer containing 20 mM dithiothreitol and then resolved by SDS-PAGE and autoradiography.

[2] = target: T1, DR4 immunoadhesin (human, UniProt O00220 24-239, limits assumed); assay: as above
T1 construct: extracellular domain; also called DR4-IgG; not shown: hinge and Fc portion of human IgG; made as described for TNFR1 in Ashkenazi et al. 1991 (IgG1 from)
T1 sequence (looked up): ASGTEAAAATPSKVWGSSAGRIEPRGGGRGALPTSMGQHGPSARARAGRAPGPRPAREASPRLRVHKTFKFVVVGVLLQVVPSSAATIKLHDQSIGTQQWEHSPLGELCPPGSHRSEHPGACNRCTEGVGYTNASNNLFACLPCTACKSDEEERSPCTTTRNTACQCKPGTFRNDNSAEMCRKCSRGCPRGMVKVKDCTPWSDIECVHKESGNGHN
Protocol: as §1, §2

[3] = target: T2, DR5 immunoadhesin (human, UniProt O14763 56-210, limits assumed); assay: as above
T2 construct: extracellular domain; also called DR5-IgG; Apo-2; not shown: hinge and Fc portion of human IgG; made as described for TNFR1 in Ashkenazi et al. 1991 (IgG1 from)
Protocol: as §1, §2

[4] = target: T3, TNFR1 immunoadhesin (human, UniProt P19438 30-211, limits assumed); assay: as above
T3 construct: extracellular domain; also called TNFR1-IgG; TNFR 1-IgG; not shown: hinge and Fc portion of human IgG
T3 sequence (looked up): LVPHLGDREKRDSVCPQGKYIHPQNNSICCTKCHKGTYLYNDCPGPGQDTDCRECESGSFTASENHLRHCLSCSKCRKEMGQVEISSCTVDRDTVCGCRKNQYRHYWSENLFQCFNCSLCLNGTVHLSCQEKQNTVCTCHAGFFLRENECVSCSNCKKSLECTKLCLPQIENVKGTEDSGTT
Protocol: as §1, §2

[5] = target: T4, TNFR2 immunoadhesin (human, UniProt P20333 23-257, limits assumed); assay: as above
T4 construct: extracellular domain; also called TNFR2-IgG; not shown: hinge and Fc portion of human IgG; made as described for TNFR1 in Ashkenazi et al. 1991 (IgG1 from)
T4 sequence (looked up): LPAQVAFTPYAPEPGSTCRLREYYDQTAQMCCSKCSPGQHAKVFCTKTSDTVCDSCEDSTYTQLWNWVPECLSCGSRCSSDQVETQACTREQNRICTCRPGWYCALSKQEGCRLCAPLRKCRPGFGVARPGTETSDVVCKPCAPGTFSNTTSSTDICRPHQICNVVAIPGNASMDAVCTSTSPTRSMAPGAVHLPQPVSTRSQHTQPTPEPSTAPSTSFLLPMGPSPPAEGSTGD
Protocol: as §1, §2

[6] = target: T5, Apo-3 immunoadhesin (human, UniProt Q93038 25-199); assay: as above
T5 construct: extracellular domain; also called Apo-3-IgG; DR3; not shown: hinge and Fc portion of human IgG; made as described for TNFR1 in Ashkenazi et al. 1991 (IgG1 from)
T5 sequence (looked up): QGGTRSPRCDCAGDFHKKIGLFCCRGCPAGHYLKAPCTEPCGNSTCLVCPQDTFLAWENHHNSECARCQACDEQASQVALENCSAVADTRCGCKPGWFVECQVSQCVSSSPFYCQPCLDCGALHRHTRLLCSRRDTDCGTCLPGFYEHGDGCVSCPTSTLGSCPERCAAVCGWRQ
Protocol: as §1, §2

[7] = target: B3; assay: FACS on HUVEC (endogenous PRO175)
Protocol: (§3) The PRO175 polypeptide was identified in a human umbilical vein endothelial cell (HUVEC) library, and the PRO175 polypeptide transcripts are readily detectable in HUVEC by RT-PCR (data not shown). […] HUVEC were purchased from Cell Systems (Kirkland, Wash.) and grown in a 50:50 mix of Ham=s F 12 and Low Glucose DMEM media containing 10% fetal bovine serum, 2 mM L-glutamine, 10 mM Hepes, and 10 ng/ml basic FGF. Cells were FACS sorted with PBS, PRO364-IgG, TNFR1-IgG or Fas-IgG as a primary antibody and goat anti-human F(ab=)₂ conjugated to phycoerythrin (CalTag, Burlingame, Calif.).

[8] = target: T3, TNFR1 immunoadhesin; assay: FACS on HUVEC (endogenous PRO175)
Protocol: as §3

[9] = target: B3; assay: FACS on 293 cells transiently transfected with full-length PRO175
Protocol: In another assay, human 293 cells were transiently transfected with full-length PRO175 and the ability of receptor immunoadhesin constructs for PRO364, TNFR1, HVEM, and DcR1 to bind to those transfected cells was determined by FACS analysis. The 293 cells were maintained in high glucose DMEM media supplemented with 10% fetal bovine serum (FBS), 2 mM glutamine, 100 microgram/ml penicillin, and 100 microgram/ml streptomycin. The transfected cells ([…]) were incubated for 60 minutes at 4° C. in 200 microliters 2% FBS/PBS with 1 microgram of the respective receptor or ligand immunoadhesin. The cells were then washed with 2% FBS/PBS, stained with R-phycoerythrin-conjugated goat anti-human antibody (Jackson Immunoresearch, West Grove, Pa.). Next, the cells were analyzed by FACS. To test the binding of the respective immunoadhesins to the transiently transfected cells, an expression vector (pRK5-CD4; Smith et al., Science, 328:1704-1707 (1987)) for CD4 was co-transfected with PRO175 expression vector (see above). FITC-conjugated anti-CD4 (Pharmingen, San Diego, Calif.) was then used to identify and gate the transfected cell population in the FACS analysis.

B1: soluble PRO175 polypeptide (PRO175 ECD, E. coli, Met-Gly-His10-enterokinase-site tagged) (ligand)
chain: MGHHHHHHHHHHSSGHIDDDDKHMETAKEPCMAKFGPLPSKWQMASSEPPCVNKVSDWKLEILQNGLYLIYGQVAPNANYNDVAPFEVRLYKNKDMIQTLTNKSKIQNVGGTYELHVGDTIDLIFNSEHQVLKNNTYWGIILLANPQFIS
modifications: labeled with 125I (residues not stated)
notes: also called soluble PRO175 ECD molecule; radioiodinated soluble PRO175 polypeptide
- binding result [1]: no binding
- binding result [2]: no binding
- binding result [3]: no binding
- binding result [4]: no binding
- binding result [5]: no binding
- binding result [6]: no binding

Binder: B2
- binding result [7]: no binding

Binder: B3
- binding result [8]: no binding

B4: PRO364-IgG (soluble immunoglobulin fusion protein of the PRO364 extracellular domain) (Fc fusion)
chain: QRPTGGPGCGPGRLLLGTGTDARCCRVHTTRCCRDYPGEECCSEWDCMCVQPEFHCGDPCCTTCRHHPCPPGQGVQSQGKFSFGFQCIDCASGTFSGGHEGHCKPWTDCTQFGFLTVFPGNKTHNAVCVPGSPPAE
notes: Expressed in insect cells with Baculovirus; also called PRO364 immunoadhesin; PRO364 ECD C-terminus IgG-Fc tagged form; not shown: IgG-Fc at the C-terminus
- binding result [9]: binds

From patent US20050202008A1 (Genentech, published 2005)
